# Results published in publication PMC3012696, “Crystal Structure of UBA2^ufd-Ubc9: Insights into E1-E2 Interactions in Sumo Pathways” (PLoS ONE, 2010).
# T1: Ubc9 (Sumo E2 conjugating enzyme), S. cerevisiae (S. cerevisiae, UniProt P50623 1-157)
# T1 construct: Ubc9, S. cerevisiae; also called yeast Ubc9; source: cation exchange for crystallography; not shown: GST, N-terminal, cleaved
# T1 sequence: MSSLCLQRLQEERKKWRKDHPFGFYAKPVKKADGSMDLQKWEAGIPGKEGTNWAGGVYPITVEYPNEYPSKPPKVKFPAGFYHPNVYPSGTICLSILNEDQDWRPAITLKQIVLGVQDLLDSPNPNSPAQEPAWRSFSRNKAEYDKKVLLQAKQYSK
# Biological target: T1, Ubc9 (Sumo E2 conjugating enzyme), S. …
# Experiment: crystal structure; 1.1:1 volume:volume mixture of Uba2^ufd at 22 mg/ml and Ubc9 at 27 mg/ml; crystals at 4°C; 20% (w/v) PEG3350, 0.1 M Bis-Tris pH 5.5, 0.2 M Li2SO4; 2.3 Å; two complexes per asymmetric unit
# Settings: both partners purified
binder,measurement,value
"Uba2 ubiquitin-fold domain (Uba2^ufd), residues 439-563, S. cerevisiae (domain or fragment, UniProt P52488 439-563, looked up, Uba2 (Sumo E1 subunit), S. cerevisiae, C-terminal ubiquitin-fold domain, residues 439-563; Expressed from pGEX-4T1; also called yeast Uba2^ufd; not shown: GST, N-terminal, cleaved) SKVCRGVIKLSSDCLNKMKLSDFVVLIREKYSYPQDISLLDASNQRLLFDYDFEDLNDRTLSEINLGNGSIILFSDEEGDTMIRKAIELFLDVDDELPCNTCSLPDVEVPLIKANNSPSKNEEEE",binding result,binds
